Experimental findings from the nanobody polyreactivity screen of Harvey et al. (2022) are described below.

This series in a line: yeast display, Sf9 membrane polyspecificity reagent, FACS + sequencing; frameworks hold sequencing errors. The essentials: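 Using colony PCR, genes from sorted yeast display clones were amplified, then sequenced on MiSeq at 2 × 250 and filtered by CDR length. The clones had been stained with 10% biotinylated, detergent-solubilized Sf9 membrane reagent for 1 hour at 4 °C and sorted by FACS into low and high (top ~1%) gates on anti-HA and streptavidin fluorescence. Polyreactivity labels come from the gate of origin.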
For “QVQLVESGGGLDQAGGSLRLSCAASGSTFNSYAMGWYRQAPGKERELVAAITSSVGSTYYADSVKGRFTISRDNAKNTVYLQMNSLKPEDTAVYYCAADYFSYWYFSGYDYWGQGTQVTVSS”, the “polyreactivity (PSR sort gate)” value was “low polyreactivity”.
Consider “QVQLVESGGGLDQAGGSLRLSCAASGSTFNSYVMGCYRQAPGKEREFVAAISWSGVRTYYADSVKGRFTISRDNAKNTVFLQMNSLIPEDTAVYYCAVRSGRRNYYRPAFGYWGQGTQVTVSS”, for which the “polyreactivity (PSR sort gate)” value is reported as “high polyreactivity”.
To “QVQLVESGGGLDQAGGSLRLSCAASGSTFNWYTMGWYRQAPGKERELVAAISLNGGRTYYADSVKGRFTISRDNAKNTVYFQMNSLKQEDTAVYYCAAQISFYFAQYNLARFRGYYWGQGTQVTVSS” belongs “high polyreactivity”.
Regarding “QVQLVESGGGLDQAGGSLRLSCAASGSTFRSNAMGWYRQAPGKERELVAGITSGTSTNYADSVKGRFTISRDNAKNTVYLQMNSLKPEDTAVYYCNTDRIWYGPEYDYWGQGTQVTVSS”, the “polyreactivity (PSR sort gate)” value was “low polyreactivity”.
“QVQLVESGGGLDQAGGSLRLSCAASGSTFSRNAMGWYRQAPGKERELVAGISYIGGRTYYADSVKGRFTISRDNAKNTVYLQMNSLKPEDTAVYYCNVVPKSRDWQSYGSWGQGTQVTVSS”: the “polyreactivity (PSR sort gate)” value is recorded as “high polyreactivity”.
On to “QVQLVESGGGLDQAGGSLRLSCAASGSTFYPYAMGWYRQAPGKERDFVAAISYSAGSTYYADSVKGRFTISRDNAKNTVYLQMHSLKPEDTAVYYCADYGWYTYQTSYDYWGQGTQVTVSS”, for which the “polyreactivity (PSR sort gate)” value is reported as “low polyreactivity”.
Consider “QVQLVESGGGLDQAGGSLRLSCAASGSTLPVYALGWNRQAPGKERELVAAITDSGGNTYYADSVKGRFTISRDNAKNTVYLQMNSLKPEDTAVYYCNADAQSTSGYGYYAPYWMDYWGQGTQVTVSS”, for which the “polyreactivity (PSR sort gate)” value is “low polyreactivity”.
To “QVQLVESGGGLDQAGGSLRLSCAASGYTFNLNAMGWYRQAPGKERELVAAISSGDSTDYADSVKGRFTISRDNAKNTVYLQMHSLQPEDTAVYYCNADLPVVWRRDFWGDLYWGQATQVTVSS” belongs “low polyreactivity”; to “QVQLVESGGGLDQAGGSLRLSCAASGYTYGTYDMRWYRQAPGKERELVAAISIGGSTNYADSVKGRFTISRDNAKNTVYLQMNSLKPEDTAVYYCAAEVNVGTLLLSVIVEDGDYWGQGTQVTVSS”, “low polyreactivity”.
As to “QVQLVESGGGLDQAGGSLRLSCAAYGVPSLTMNMGWYRQAPGKERELFATIYSGGSTYYADSVKWRFTISRDNAKNTVYLQMNRLKPEDTAVYYCAARQSYYYSRSYIRGDYWGQGTQVTVSS”, the “polyreactivity (PSR sort gate)” value is “high polyreactivity”.
As to “QVQLVESGGGLDQAGGSLRLSSAASGFIFDGNAMGWYRQAPGKERELVASITKSSGRTYYADSVKGRFTISRDNAKNTVYLQMNSLKPEDTAVYYCNKARRSVQPYGRQYDYWGQGTQVTVSS”, the “polyreactivity (PSR sort gate)” value is on record as “high polyreactivity”.
Consider “QVQLVESGGGLDQAGGSLRLSSAASGRIFSKSAMGLYRQAPGKETELVAAMTSGGRTYYADSVKGRFTISRDIAKNTVYLQMNSLKPEDTAVYYCAARYVQVVRKFGYWVQGTQVTVSS”, for which the “polyreactivity (PSR sort gate)” value is reported as “high polyreactivity”.
With “QVQLVESGGGLDQAGGSLRLTCADSGSIFIRNAMGWYRHAPGKESELVAAISGSGSSTYYADSVKGRFTISRDNAKNTVYLQMNSLKPEDTAVYYCNTDRTHSYQYGGYDYWGQGTQVTVSS”, the “polyreactivity (PSR sort gate)” value is “low polyreactivity”.
Take “QVQLVESGGGLDQAGGSLSLSCAASGIIFAGNAMGWYRQPPGKERELVAAISSNGGSTYYADSVKGRFTISRDNAKNTVYLQMNSLKPEDTAVYYCAADRVYWGRVQGYYWGQGTQVTVSS”: the “polyreactivity (PSR sort gate)” value was “low polyreactivity”.
To “QVQLVESGGGLDQAGVSLRLSCAASGSTFSANAMGWFRQAPGKERELVAAISSGDITYYADSVKGRFTISRDNAKNTVYLQMNSLKPEDTAVYYCAKYTRPTGNVDDGFEYWGQGTQVTVSS” belongs “low polyreactivity”; to “QVQLVESGGGLDQARGSLRLSCAASGLTFASNAMGWYRQAPGKERELVAAISWSDGSTYYADSVKGRFTISRDNAKNTVYLQMNSLKPEDTAVYYCAAEPPGFRTSRVGYWGQGTQVTVSS”, “low polyreactivity”; to “QVQLVESGGGLDQARGSLRLSCAASGRTSLRYAMGWYRQAPWKERELVAAITSSGATTYYADSVKGRFTISRDNAKNTVYLQMNSLKPEDTAVYYCAAVYSAKRGSGGFGYWGQGTQVTVSS”, “high polyreactivity”.
As to “QVQLVESGGGLDQARGTLRLSCAASGSTILGNAMGWYRHAPGKERELVAGITSGGTTNYADSVKGRFTISRVNAKNNVYLQMTSLKPEDTSVYYCNAGGHLEMNYWGKGTQVTVSS”, the “polyreactivity (PSR sort gate)” value is on record as “low polyreactivity”.
Turning to “QVQLVESGGGLDQEGVRLRLSCAASGRTFRIYAMGLYRQAPGNERELVAAISSDASTSYADSVKGRFTISRDNPKNTVYFQMNSLKPEATAVYYSAADPGPYFDWGYDFWGQGTQVTVSS”, the “polyreactivity (PSR sort gate)” value is “low polyreactivity”.
Regarding “QVQLVESGGGLEQAGGSLRISCAASVSTVRFNAMGWYIQEPGKERQLVAVIRWRGGTTYYADSVKGRFTISRDNAKNTVYLQMNSLKPEDPAVYYCNADYWFSYTWHGSYTVGYWGQGTQVTVSS”, the “polyreactivity (PSR sort gate)” value is “high polyreactivity”.
In the case of “QVQLVESGGGLEQAGGSLRLSCAASGRTFYYYAMGWYRQAPGKERELVAAIRWRGGRTYADSVKGRFTISRDNAKNTVYLQMKSLKPEDTAVYYCAVDSFYRHASLYDYWGQGTQVTVSS”, the “polyreactivity (PSR sort gate)” value was “high polyreactivity”.
For “QVQLVESGGGLFHAGGSLRLICAASGTTFKYYAMGSYRQAPAIEREFVAAISTRTGNTYYADSVKGRFTISRDNAKNTVYLQMNSLKPEDTAVYYCAARPRQGRGYDFYYWGQGTQVTVSS”, the “polyreactivity (PSR sort gate)” value was “high polyreactivity”.
On to “QVQLVESGGGLFQAAGSLRLSCAASGLTFAYNAMGWYRQAPGKERELDAEISKRGGSTFYADSVKGRFTLSHVNAKNTVYLQMNSLKPEDTAVYYCARGSYPYRSFWLTSDDWGQGTQVTVSS”, for which the “polyreactivity (PSR sort gate)” value was “high polyreactivity”.
With “QVQLVESGGGLFQAGGILRLSCAASGFIFSSYAMGLYRLAPGKERELVAAISRSGGRTYYADSVKGRFTISRDYAKNTVYLQMNSLKPEDTAVYYCAARWYGLYLQRYDYWGQGTQVTVSS”, the “polyreactivity (PSR sort gate)” value is recorded as “high polyreactivity”.
To “QVQLVESGGGLFQAGGSHRLSCAASGSTFRVYAMGWYRHAPGKERELVADISRSVTRTYYADSVKGRFTISRDNSKNTFYLQMNSLIPEETAVYYCAAVSYYRRWQTAYYSWGQGTQVTVSS” belongs “high polyreactivity”; to “QVQLVESGGGLFQAGGSLGLSCAASGSTFSKYAMGWSRQAPGKERELVAAISSGGRTNYADSVKGRFTISRDNAKNTVYLHMNSLKPEDTAVYDCAALWGYWAYYYWGQGTQVTVSS”, “low polyreactivity”; to “QVQLVESGGGLFQAGGSLPVSCAASGFIFDDYAMGWYRQAPGKERELVAAISSGGSTNYADSVKGRFTISRDNAKNTVYLQLNSLKPEDSAVYYCADRAGYQFSYNYWGQGTQVTVSS”, “high polyreactivity”.
With “QVQLVESGGGLFQAGGSLRFSCAASGIIFSTNAMGWYRQAPGKERELVATITSSSGRTYYADSVKGRFTISRDNAKNTLYLQMNSLKPEDTAVYYCATGGVLIKGHYYWGQGTQVTVSS”, the “polyreactivity (PSR sort gate)” value was “low polyreactivity”.
To “QVQLVESGGGLFQAGGSLRIICAASGSIFGAYAMGWYRQAPGKERELVAGIRRAGDSTYYADSVKGRFTISRDYAKNTVYLLMNCMKPEDTAVYYCAAYLYLEYYYRGQGTQVTVSS” belongs “low polyreactivity”; to “QVQLVESGGGLFQAGGSLRITCSPSGFIFHGYAMGWYRQAPGKERELVAAISTGTNTNYADSLKGRFTISRDNAKNTVYIQMNRLKPEDTAVYYCNARSADTWYTSRRFYYWGQGTQVTVSS”, “low polyreactivity”; to “QVQLVESGGGLFQAGGSLRLSCAASGFIFTGYAMGWYRQAPGKASELVAVISYSAGSTYYADSVKGRFTISRDNAKNTVYLQMNSLKPEDTAVYYCAADHGKNLTYDYWGQGTQVTVSS”, “high polyreactivity”.
To “QVQLVESGGGLFQAGGSLRLSCAASGFTFDYYAMGWYRQAPGKERELVADINRSGGSSYYADSVKGRFTISRDNAKNTVYLQMNSLKPEDTAVYYCNARVTPFFYHYPRDYYYWGQGTQVTVSS” belongs “high polyreactivity”.
Consider “QVQLVESGGGLFQAGGSLRLSCAASGFTFRANAMGWYRQAPGKERELVAVITGSGRTYYADSVKGRFTISRDNAKNTVYLQMNSLKPEDTAVYYCAARAAYRVSSPGYDSWGQGTQVTVSS”, for which the “polyreactivity (PSR sort gate)” value is on record as “high polyreactivity”.
Consider “QVQLVESGGGLFQAGGSLRLSCAASGGIFFYYAMGGYRQAPGKERELVAAIRTNGGTTYYADSVKGRFTISRDNAKNTVYLQRNRLKTEDTAVYYCPAQPGGYYVRGEFDYWGQGTQVTLSS”, for which the “polyreactivity (PSR sort gate)” value was “low polyreactivity”.
Turning to “QVQLVESGGGLFQAGGSLRLSCAASGIIFQRNDMGWYRQAPGKERELVANIRDGGITYADSVKGRFTISRDNAKNTVYLQMNSLKPEDTAVYYCARDDTSPGYCDQSSNAAYYYWGQGTQVTVSS”, the “polyreactivity (PSR sort gate)” value was “low polyreactivity”.
To “QVQLVESGGGLFQAGGSLRLSCAASGIIFQSYDMAWYRQAPGKERELVAAISRGGGSTYYADSVKGRFTISRDNAKNTVYLQMNSLIPEDTAVYYCAADYRGEYDYWGQGTQVTVSS” belongs “low polyreactivity”; to “QVQLVESGGGLFQAGGSLRLSCAASGITFHRYDMVWYRQAPGKERELVADITWCGGSTYYADSVKGRFTISRDNAKNTVYLQMNSLKPEDTAVYYCAADASTYTDTPYDYWGQGSQVTVSS”, “low polyreactivity”.
As for “QVQLVESGGGLFQAGGSLRLSCAASGITFPDYAMGWYRQAPGKERELVATISSSGGNTYYADSVKGRFTISRDNAKNTVYLQMNSLKPEDTAVYYCATVSYYLGYDYWGQGTQVTVSS”, the “polyreactivity (PSR sort gate)” value is given as “low polyreactivity”.
To “QVQLVESGGGLFQAGGSLRLSCAASGLIFGYYDMGWYRQAPGKERELVASISRNGGCTYYADSVKGRFTISRDNAKNTVYLQMNRLKTEDTAVYYCARTGPWARYSHGLYKSDYWGQGTQVTVAS” belongs “high polyreactivity”; to “QVQLVESGGGLFQAGGSLRLSCAASGNIFAYNAMGWYRQAPGKERELVASIRYSGGSTYYADSVKGRFTISRDNAKNTVYLQINSLKPEDTAVYYCAKRGYSSYRTYNYWGQGTQVTVSS”, “high polyreactivity”.
